The text below walks through data of the supplement of paper PMC10567573.

First the molecules themselves.
B1: CSNK1G1 (parent)
chain: GSLPWQGLKADTLKERYQKIGDTK
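Note: lentivirally expressed fusions sorted by FACS into six bins by GFP to DsRed ratio, PSI derived from sequencing read proportions per bin multiplied by bin number.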

In this series the parent is B1. Nature of the series: protein stability index of a GFP-peptide fusion (GPS, HEK-293T) (PSI 1-6); higher = more stable. The settings on record: c terminus: a fixed tail appended.
For GSLPWQGLKADTLKERAQKIGDTK [Y17A], the protein stability index worked out at 4.98.

Regarding GSLPWQGLKADTLKERWQKIGDTK [Y17W], the protein stability index worked out at 3.82.

For the variant GSLPWQGLKADTLKERQQKIGDTK [Y17Q], the protein stability index came out at 4.81.

On to GSLPWQGLKADTLKERRQKIGDTK [Y17R], for which the protein stability index came out at 4.13.

Turning to GSLPWQGLKADTLKERSQKIGDTK [Y17S], the protein stability index is 4.45.

With GSLPWQGLKADTLKERYQKISDTK [G21S], the protein stability index came to 4.3.

Consider GSLPWQGLKADTLKERYQKIPDTK [G21P], for which the protein stability index was 4.62.

As for GSLPWQGLKADTLKERYQKIADTK [G21A], the protein stability index was 3.59.

As for GSLPWQGLKADTLKERYQKIWDTK [G21W], the protein stability index came to 3.01.

For GSLPWQGLKADTLKERYQKIYDTK [G21Y], the protein stability index stood at 3.74.

GSLPWQGLKADTLKERYQKIRDTK [G21R]: the protein stability index came out at 4.16.

Turning to GSLPWQGLKADVLKERYQKIGDTK [T12V], the protein stability index amounted to 4.2.

In the case of GSLPWQGLKADKLKERYQKIGDTK [T12K], the protein stability index worked out at 4.28.

Consider GSLPWQGLKADYLKERYQKIGDTK [T12Y], for which the protein stability index is 3.51.

Consider GSLPWQGLKADLLKERYQKIGDTK [T12L], for which the protein stability index is 3.37.

In the case of GSLPWQGLKADALKERYQKIGDTK [T12A], the protein stability index was determined as 3.99.

In the case of GSLPWQGLKADTLKERYQCIGDTK [K19C], the protein stability index amounted to 3.56.

As to GSLPWQGLKADTLKERYQMIGDTK [K19M], the protein stability index came to 3.68.

For GSLPWQGKKADTLKERYQKIGDTK [L8K], the protein stability index worked out at 4.17.

For GSLPWQGVKADTLKERYQKIGDTK [L8V], the protein stability index amounted to 4.66.

Take GSLPWQGQKADTLKERYQKIGDTK [L8Q]: the protein stability index was determined as 4.24.

As for GSLPWQGWKADTLKERYQKIGDTK [L8W], the protein stability index was determined as 3.69.

As to GSLPWQGPKADTLKERYQKIGDTK [L8P], the protein stability index was determined as 4.43.

For GSLPWQGLKADTLKEFYQKIGDTK [R16F], the protein stability index is 3.98.

Consider GSLPWQGLKADTLKELYQKIGDTK [R16L], for which the protein stability index came out at 4.11.

Take GSLPWQGLKADTLKEGYQKIGDTK [R16G]: the protein stability index stood at 4.89.

For the variant GSLPWQGLKADTLKEWYQKIGDTK [R16W], the protein stability index was determined as 2.99.

GSLPWQGLKADTLKETYQKIGDTK [R16T]: the protein stability index amounted to 4.07.

For MSLPWQGLKADTLKERYQKIGDTK [G1M], the protein stability index came to 4.35.

For the variant ASLPWQGLKADTLKERYQKIGDTK [G1A], the protein stability index worked out at 4.05.

Regarding VSLPWQGLKADTLKERYQKIGDTK [G1V], the protein stability index was found to be 3.79.

As for GSLPWQGLKFDTLKERYQKIGDTK [A10F], the protein stability index came to 3.5.

Take GSLPWQGLKQDTLKERYQKIGDTK [A10Q]: the protein stability index is 4.

For GSLPWQGLKEDTLKERYQKIGDTK [A10E], the protein stability index turned out to be 4.06.

For GSIPWQGLKADTLKERYQKIGDTK [L3I], the protein stability index turned out to be 4.55.

As for GSNPWQGLKADTLKERYQKIGDTK [L3N], the protein stability index stood at 4.09.

For the variant GSLPWQGLAADTLKERYQKIGDTK [K9A], the protein stability index worked out at 3.71.

Turning to GSLPWQGLRADTLKERYQKIGDTK [K9R], the protein stability index turned out to be 4.09.

GSLPWQGLKADTSKERYQKIGDTK [L13S]: the protein stability index is 4.62.

Consider GSLPWQGLKADTPKERYQKIGDTK [L13P], for which the protein stability index came to 4.06.

GSLPWQGLKADTQKERYQKIGDTK [L13Q]: the protein stability index came out at 4.47.

GSLPWQGLKADTWKERYQKIGDTK [L13W]: the protein stability index amounted to 3.05.

Take GSLPWQGLKADTGKERYQKIGDTK [L13G]: the protein stability index stood at 4.12.

Take GSLPWQGLKADTMKERYQKIGDTK [L13M]: the protein stability index is 3.46.

GSLPWQGLKADTLKERYQKVGDTK [I20V]: the protein stability index came to 4.3.

Regarding GSLPWQGLKADTLKERYQKSGDTK [I20S], the protein stability index is 4.65.

For GSLPWQGLKADTLKERYQKDGDTK [I20D], the protein stability index worked out at 4.86.

Turning to GQLPWQGLKADTLKERYQKIGDTK [S2Q], the protein stability index is 4.57.

Regarding GKLPWQGLKADTLKERYQKIGDTK [S2K], the protein stability index was 4.37.

With GGLPWQGLKADTLKERYQKIGDTK [S2G], the protein stability index is 3.69.

Turning to GILPWQGLKADTLKERYQKIGDTK [S2I], the protein stability index is 3.47.

As for GTLPWQGLKADTLKERYQKIGDTK [S2T], the protein stability index is 4.21.

Regarding GSLPWQGLKADTLKERYQKIGDTS [K24S], the protein stability index was 3.79.

On to GSLPWQGLKADTLKERYQKIGDTP [K24P], for which the protein stability index turned out to be 4.2.

As for GSLPWQGLKADTLKERYQKIGDTY [K24Y], the protein stability index is 2.63.

As to GSLPWQGLKADTLKERYQKIGDTI [K24I], the protein stability index was determined as 3.53.

Take GSLPWQGLKADTLKERYQKIGDTM [K24M]: the protein stability index came to 3.19.

As to GSLPWQGLKADTLKERYQKIGDTV [K24V], the protein stability index stood at 3.39.

Consider GSLPWQGLKADTLKERYQKIGDFK [T23F], for which the protein stability index was determined as 3.38.

As for GSLPWQGLKADTLKERYQKIGDKK [T23K], the protein stability index was 4.74.

Turning to GSLPWQGLKARTLKERYQKIGDTK [D11R], the protein stability index stood at 3.57.

For the variant GSLPWQGLKAMTLKERYQKIGDTK [D11M], the protein stability index stood at 3.32.

In the case of GSLPWQGLKAITLKERYQKIGDTK [D11I], the protein stability index was determined as 3.73.

As for GSLPWQGLKAGTLKERYQKIGDTK [D11G], the protein stability index was found to be 3.8.

On to GSLPWQGLKADTLKARYQKIGDTK [E15A], for which the protein stability index is 3.74.

Turning to GSLPWQGLKADTLKGRYQKIGDTK [E15G], the protein stability index stood at 4.07.

As for GSLPWQGLKADTLKERYQKIGITK [D22I], the protein stability index turned out to be 3.41.

On to GSLPWQGLKADTLKERYQKIGVTK [D22V], for which the protein stability index turned out to be 3.65.

In the case of GSLPWQGLKADTLKERYQKIGHTK [D22H], the protein stability index worked out at 3.75.

Consider GSLPWQMLKADTLKERYQKIGDTK [G7M], for which the protein stability index came out at 3.85.

For the variant GSLPWQFLKADTLKERYQKIGDTK [G7F], the protein stability index was 2.42.

With GSLPWQTLKADTLKERYQKIGDTK [G7T], the protein stability index is 3.89.

With GSLPWQNLKADTLKERYQKIGDTK [G7N], the protein stability index is 4.64.

On to GSLPWQGLKADTLCERYQKIGDTK [K14C], for which the protein stability index came out at 3.81.

Take GSLPWQGLKADTLTERYQKIGDTK [K14T]: the protein stability index amounted to 4.09.

As to GSLPWQGLKADTLLERYQKIGDTK [K14L], the protein stability index amounted to 3.1.

Take GSLPWEGLKADTLKERYQKIGDTK [Q6E]: the protein stability index stood at 4.32.

Take GSLPWPGLKADTLKERYQKIGDTK [Q6P]: the protein stability index was found to be 4.57.

Consider GSLPWVGLKADTLKERYQKIGDTK [Q6V], for which the protein stability index is 4.33.

On to GSLPWFGLKADTLKERYQKIGDTK [Q6F], for which the protein stability index was determined as 3.25.

GSLPWAGLKADTLKERYQKIGDTK [Q6A]: the protein stability index was 3.7.

Turning to GSLPWIGLKADTLKERYQKIGDTK [Q6I], the protein stability index was found to be 3.94.

Take GSLKWQGLKADTLKERYQKIGDTK [P4K]: the protein stability index was 4.28.

With GSLEWQGLKADTLKERYQKIGDTK [P4E], the protein stability index stood at 4.46.

Consider GSLHWQGLKADTLKERYQKIGDTK [P4H], for which the protein stability index is 4.17.

Turning to GSLFWQGLKADTLKERYQKIGDTK [P4F], the protein stability index is 2.84.

GSLNWQGLKADTLKERYQKIGDTK [P4N]: the protein stability index is 3.95.

As for GSLWWQGLKADTLKERYQKIGDTK [P4W], the protein stability index turned out to be 3.09.

On to GSLPWQGLKADTLKERYYKIGDTK [Q18Y], for which the protein stability index stood at 3.74.

As to GSLPWQGLKADTLKERYFKIGDTK [Q18F], the protein stability index amounted to 2.91.

As to GSLPDQGLKADTLKERYQKIGDTK [W5D], the protein stability index was found to be 5.18.

For GSLPNQGLKADTLKERYQKIGDTK [W5N], the protein stability index came to 4.97.

For the variant GSLPSQGLKADTLKERYQKIGDTK [W5S], the protein stability index is 4.99.

Turning to GSLPCQGLKADTLKERYQKIGDTK [W5C], the protein stability index stood at 4.7.
